Laboratory results published in patent publication US9322042B2, “Thermostable cellulases, and mutants thereof, capable of hydrolyzing cellulose in ionic liquid” (The Regents of the University of California, priority 2009, dated 2016).

B1: Pho EG: cellulase of Pyrococcus horikoshii strain OT3 (Accession No. NP_143072); SEQ ID NO: 21 (protein, listed as Pyrococcus horikoshii)
chain: MEGNTILKIVLICTILAGLFGQVVPVYAENTTYQTPTGIYYEVRGDTIYMINVTSGEETPIHLFGVNWFGFETPNHVVHGLWKRNWEDMLLQIKSLGFNAIRLPFCTESVKPGTQPIGIDYSKNPDLRGLDSLQIMEKIIKKAGDLGIFVLLDYHRIGCTHIEPLWYTEDFSEEDFINTWIEVAKRFGKYWNVIGADLKNEPHSVTSPPAAYTDGTGATWGMGNPATDWNLAAERIGKAILKVAPHWLIFVEGTQFTNPKTDSSYKWGYNAWWGGNLMAVKDYPVNLPRNKLVYSPHVYGPDVYNQPYFGPAKGFPDNLPDIWYHHFGYVKLELGYSVVIGEFGGKYGHGGDPRDVIWQNKLVDWMIENKFCDFFYWSWNPDSGDTGGILQDDWTTIWEDKYNNLKRLMDSCSKSSSSTQSVIRSTTPTKSNTSKKICGPAILIILAVFSLLLRRAPR
B2: Tma Cel5A: wild-type cellulase of Thermatoga maritima strain MSB8 (Accession No. NP_229549); SEQ ID NO: 20 (protein, listed as Thermotoga maritima)
chain: MGVDPFERNKILGRGINIGNALEAPNEGDWGVVIKDEFFDIIKEAGFSHVRIPIRWSTHAYAFPPYKIMDRFFKRVDEVINGALKRGLAVVINIHHYEELMNDPEEHKERFLALWKQIADRYKDYPETLFFEILNEPHGNLTPEKWNELLEEALKVIRSIDKKHTIIIGTAEWGGISALEKLSVPKWEKNSIVTIHYYNPFEFTHQGAEWVEGSEKWLGRKWGSPDDQKHLIEEFNFIEEWSKKNKRPIYIGEFGAYRKADLESRIKWTSFVVREMEKRRWSWAYWEFCSGFGVYDTLRKTWNKDLLEALIGGDSIE

Experiments:
[1] = Activity assay on insoluble substrate: Avicel; type: biochemical
Description: (§1) Corn stover refers to stalks, leaves and cobs that remain in the fields after the corn kernel harvest and is the largest quantity of biomass residue in the United States and as such is also a LC-biomass source for producing cellulosic ethanol in the United States. [C2mim][OAc] pretreated corn stover is used as a substrate to verify enzymatic efficiency on IL-pretreated biomass and a comparison made with [C2mim][OAc] pretreated Avicel. Avicel is a commercially available microcrystalline cellulose and a good model substrate for analysis. Similar assays are done in the presence of [C2mim][OAc] to simulate real biomass processing and saccharification scenarios. The assay products for the reactions in the presence of IL are detected by high performance anion exchange chromatography (HPAEC). The enzymatic hydrolysis reaction is carried out for 8 h for the T. viride cellulase and 15 h for the hyperthermophilic enzymes, taking into account the half-lives of these enzymes. To compare the amounts of total sugars formed between different reactions, the sum of glucose, xylose and cellobiose are calculated and reported as mmoles of sugars formed per min per mg of enzyme used (Table 7). A comparison of assay results between pretreated and untreated substrate indicates a 2-6 fold increase in hydrolysis products after pretreatment irrespective of the enzyme used, thereby confirming that IL pretreatment can increase the efficiency of hydrolysis of cellulose recovered from biomass. […] The catalytic efficiency of the fungal enzyme however, decreases with increasing IL concentration in the reaction mix. After normalizing for the reaction time and enzyme amounts, the amount of sugars formed is undetectable at 15% [C2mim][OAc]. […] The yield of sugars from Tma Cel5A hydrolysis of pretreated Avicel in the presence of 15% IL decreases by 43% compared to 0% IL, while the decrease is only 10% in the case of Pho EG on the same substrate under similar conditions (Table 7).
(§2) The hydrolysis reactions are performed under pH and temperatures for each enzyme as described herein. The reactions are run over a 14 h period with 5-10 mg of enzyme with 6% (w/v) enzyme loading in optimum buffer for each enzyme and run in duplicate. The reaction products are measured on a HPLC and HPAEC. The amounts of sugars detected are shown in mmoles and normalized with regards to amount of enzyme and time of reaction. Different reactions under each enzyme were run under exactly similar conditions.
Enzymatic activity is measured on soluble polysaccharide substrates, CMC, using the 3,5-dinitrosalicylic acid (DNS) reducing sugar assay. Briefly, 2% CMC (w/v) in […] acetate buffer, (100 mM, pH 4.5 and pH 4.8 for T. viride and Tma, respectively, and 100 mM MES buffer, pH 6.4 for P. hori EG) is incubated at 80° C. for 30 min for Tma Cel5A and Pho enzymes and 37° C. and 10 min for T. viride. The solution is cooled down to 4° C. and […] of DNS solution is added. The reactants are incubated at 95° C. for 5 min and cooled down to room temperature before the absorbance is read at 540 nm. The reducing sugar concentration in the sample is calculated from its absorbance using the standard curve of D-glucose and cellobiose. For hydrolysis reactions in the presence of [C2mim][OAc], control reactions with CMC in the presence of IL but without no enzyme is subtracted from each measurement. The solid substrate (Avicel and corn stover) hydrolysis reactions are conducted at 80° C. for 15 h for the recombinant enzymes and at 37° C. for 8 h in the case of T. viride cellulose at the optimum pH for each enzyme. The reaction products are monitored using an Agilent 1200 HPLC equipped with Varian 380-LC Evaporative Light Scattering Detector. The total reaction volumes are […] and shaken at 900 rpm at temperature controlled shakers. Enzyme loadings are 0.4 mg per g of glucan and each data point is measured in triplicate. […]

[2] = Activity assay on insoluble substrate: [C2mim][OAc] pretreated Avicel; type: biochemical; settings: for decrease of the yield of sugars from hydrolysis of pretreated Avicel: 15% IL compared to 0% IL; for Sugars produced (sum of glucose, cellobiose and xylose): pAvicel
Description: as §1, §2
[C2mim][OAc] (1 kg, as received, <0.2% moisture specified) is heated to 130° C. in a 1.5 L glass reaction vessel with mechanical stirring and 8% w/w (corn stover, 4.8% moisture) or 10% w/w (Avicel PH-101, 3% moisture). After around 3 h when the majority (corn stover) or all (Avicel) has dissolved, the dissolved corn stover or Avicel is allowed to cool to below 80° C. and is added to 2 L of 95% ethanol with rapid agitation to induce the precipitation of dissolved materials. The resulting slurry is filtered under pressure through polypropylene filter cloth and the solids redispersed in 2 L of additional ethanol. The filtration and redispersion steps are repeated twice to remove most residual ionic liquid and the filter cake dried under vacuum at 40° C. to yield a free-flowing powder product. Residual free ionic liquid remaining in the dried biomass is estimated to be less than 4% (w/w).
Enzymatic activity is measured on soluble polysaccharide substrates, CMC, using the 3,5-dinitrosalicylic acid (DNS) reducing sugar assay. Briefly, 2% CMC (w/v) in […] acetate buffer, (100 mM, pH 4.5 and pH 4.8 for T. viride and Tma, respectively, and 100 mM MES buffer, pH 6.4 for P. hori EG) is incubated at 80° C. for 30 min for Tma Cel5A and Pho enzymes and 37° C. and 10 min for T. viride. The solution is cooled down to 4° C. and […] of DNS solution is added. The reactants are incubated at 95° C. for 5 min and cooled down to room temperature before the absorbance is read at 540 nm. […]

Row | Molecule | Sugars produced (sum of glucose, cellobiose and xylose) ([1]; 0% [C2mim][OAc]) [µmol/min/mg] | Sugars produced (sum of glucose, cellobiose and xylose) ([1]; 5% [C2mim][OAc]) [µmol/min/mg] | Sugars produced (sum of glucose, cellobiose and xylose) ([1]; 10% [C2mim][OAc]) [µmol/min/mg] | Sugars produced (sum of glucose, cellobiose and xylose) ([1]; 15% [C2mim][OAc]) [µmol/min/mg] | decrease of the yield of sugars from hydrolysis of pretreated Avicel [2] [%] | Sugars produced (sum of glucose, cellobiose and xylose) ([2]; 0% [C2mim][OAc]) [µmol/min/mg] | Sugars produced (sum of glucose, cellobiose and xylose) ([2]; 5% [C2mim][OAc]) [µmol/min/mg] | Sugars produced (sum of glucose, cellobiose and xylose) ([2]; 10% [C2mim][OAc]) | Sugars produced (sum of glucose, cellobiose and xylose) ([2]; 15% [C2mim][OAc]) [µmol/min/mg]
1 | B1 | 0.54 ± 0.1 | 0.5 ± 0.1 | 0.52 ± 0.1 | 0.6 ± 0.08 | 10 | 3.2 ± 0.2 | 3.3 ± 0.2 | 3.1 ± 0.2 µmol/min/mg | 2.9 ± 0.06
2 | B2 | 1.1 ± 0.1 | 1.0 ± 0.2 | 0.9 ± 0.1 | 0.6 ± 0.1 | 43 | 6.6 ± 0.8 | 6 ± 0.5 | 5.7 ± 1^ μmoles min^−1 mg^−1 | 4 ± 0.5
